Common to all, as to details: both partners purified
The target of assay [1] is T1, NIN(1–693)::Strep-tag II (human, UniProt Q8N4C6 1-693).
T1 construct: human ninein (NIN), N-terminal fragment, residues 1-693 of 2,090; also called ninein; source: E. coli Rosetta, purified (Ni-NTA, TEV cleavage, Strep-Tactin; dialysis or SEC); not shown: 6xHis::MBP, N-terminal, cleaved; Strep-tag II (after linker GSGSGR), C-terminal, kept
T1 sequence (looked up): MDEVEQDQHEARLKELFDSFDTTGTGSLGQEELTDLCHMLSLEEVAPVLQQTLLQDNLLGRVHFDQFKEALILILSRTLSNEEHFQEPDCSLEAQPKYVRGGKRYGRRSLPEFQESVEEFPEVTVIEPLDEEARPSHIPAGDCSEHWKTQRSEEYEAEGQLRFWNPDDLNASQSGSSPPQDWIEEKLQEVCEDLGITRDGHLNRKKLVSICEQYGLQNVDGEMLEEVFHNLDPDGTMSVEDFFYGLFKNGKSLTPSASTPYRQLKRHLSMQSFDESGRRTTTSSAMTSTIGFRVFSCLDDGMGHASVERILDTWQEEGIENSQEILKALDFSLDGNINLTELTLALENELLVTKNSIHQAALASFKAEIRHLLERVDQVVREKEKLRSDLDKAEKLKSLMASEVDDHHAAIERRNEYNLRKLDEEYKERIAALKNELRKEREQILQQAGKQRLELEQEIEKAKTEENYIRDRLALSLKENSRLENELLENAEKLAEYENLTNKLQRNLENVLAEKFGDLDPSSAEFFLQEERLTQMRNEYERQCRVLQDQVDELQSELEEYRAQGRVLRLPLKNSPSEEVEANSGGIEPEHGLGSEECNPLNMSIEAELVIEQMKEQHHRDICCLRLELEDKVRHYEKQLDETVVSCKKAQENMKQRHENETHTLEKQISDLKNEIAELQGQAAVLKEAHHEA
The assay is described as follows: pull-down; GST::LIC::6xHis (50 pmol) with 50 or 250 pmol adaptor and glutathione agarose, 1 h at 4°C, 150 μL of 50 mM HEPES, 100 mM NaCl, 5 mM DTT, pH 7.5, 0.1% Tween 20; Coomassie staining and immunoblot against Strep-tag II. Background: Immunoblotting shows a protein as a band on a membrane.

Assay [2] concerns the target T2, RAB11FIP3(2–756)::Strep-tag II (human, UniProt O75154 2-756).
T2 construct: source: E. coli BL21, purified (Ni-NTA, TEV cleavage, Strep-Tactin; dialysis or SEC); not shown: 6xHis::MBP, N-terminal, cleaved; Strep-tag II (after linker GSGSGR), C-terminal, kept
T2 sequence (looked up): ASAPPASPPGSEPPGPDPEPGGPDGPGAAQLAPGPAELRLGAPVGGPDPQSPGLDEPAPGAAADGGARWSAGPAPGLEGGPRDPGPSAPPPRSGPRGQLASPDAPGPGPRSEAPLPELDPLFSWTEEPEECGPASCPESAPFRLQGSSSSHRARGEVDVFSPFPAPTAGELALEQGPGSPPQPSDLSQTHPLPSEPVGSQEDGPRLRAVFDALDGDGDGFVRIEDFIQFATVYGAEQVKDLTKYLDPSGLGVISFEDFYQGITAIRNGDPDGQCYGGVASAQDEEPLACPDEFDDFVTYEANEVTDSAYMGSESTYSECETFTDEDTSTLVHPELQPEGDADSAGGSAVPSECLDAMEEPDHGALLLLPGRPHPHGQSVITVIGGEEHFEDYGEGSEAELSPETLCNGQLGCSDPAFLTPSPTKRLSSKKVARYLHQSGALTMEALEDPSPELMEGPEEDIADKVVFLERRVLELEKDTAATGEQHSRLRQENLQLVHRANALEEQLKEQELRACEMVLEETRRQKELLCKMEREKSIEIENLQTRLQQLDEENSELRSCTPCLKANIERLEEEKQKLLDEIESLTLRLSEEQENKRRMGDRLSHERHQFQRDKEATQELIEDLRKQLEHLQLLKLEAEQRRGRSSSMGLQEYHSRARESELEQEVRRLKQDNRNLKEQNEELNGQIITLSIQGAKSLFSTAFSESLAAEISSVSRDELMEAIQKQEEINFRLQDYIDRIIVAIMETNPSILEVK
The assay is described as above.

The target of assay [3] is T3, RILP(1–401)::Strep-tag II (human, UniProt Q96NA2 1-401).
T3 construct: also called RILP::Strep-tag II; source: Sf21 insect cells (baculovirus), purified (Strep-Tactin Sepharose); not shown: Strep-tag II (after linker GSGSGR), C-terminal, kept
T3 sequence (looked up): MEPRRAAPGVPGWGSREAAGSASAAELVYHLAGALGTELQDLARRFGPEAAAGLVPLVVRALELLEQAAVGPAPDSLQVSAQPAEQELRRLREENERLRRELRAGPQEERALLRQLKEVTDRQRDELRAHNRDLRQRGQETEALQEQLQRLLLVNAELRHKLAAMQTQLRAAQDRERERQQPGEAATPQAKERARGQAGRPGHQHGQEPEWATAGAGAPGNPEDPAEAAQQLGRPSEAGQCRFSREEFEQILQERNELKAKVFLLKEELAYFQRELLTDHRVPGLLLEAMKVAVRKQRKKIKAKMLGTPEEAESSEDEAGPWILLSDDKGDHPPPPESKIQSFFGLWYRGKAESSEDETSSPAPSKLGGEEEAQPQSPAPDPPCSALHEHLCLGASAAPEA
The assay can be described thus: SPR; Biacore X100, CM5 chip; GST::LIC1::6xHis captured by immobilised anti-GST antibody, RILP::Strep-tag II as analyte (0.3–50 μM); 25°C; 10 mM HEPES, 150 mM NaCl, 3 mM EDTA, 0.05% surfactant P20, pH 7.4; 1:1 model. (Surface plasmon resonance follows binding to a sensor surface in real time, without labels.)

Assay [4] has as its target T4, HOOK3(2–552)::Strep-tag II (human, UniProt Q86VS8 2-552).
T4 construct: human Hook homolog 3 (HOOK3), residues 2-552; used for the GST pull-downs; also called Hook homolog 3; source: E. coli Rosetta, purified (Ni-NTA, TEV cleavage, Strep-Tactin; dialysis or SEC); not shown: 6xHis::MBP, N-terminal, cleaved; Strep-tag II (after linker GSGSGR), C-terminal, kept
T4 sequence (looked up): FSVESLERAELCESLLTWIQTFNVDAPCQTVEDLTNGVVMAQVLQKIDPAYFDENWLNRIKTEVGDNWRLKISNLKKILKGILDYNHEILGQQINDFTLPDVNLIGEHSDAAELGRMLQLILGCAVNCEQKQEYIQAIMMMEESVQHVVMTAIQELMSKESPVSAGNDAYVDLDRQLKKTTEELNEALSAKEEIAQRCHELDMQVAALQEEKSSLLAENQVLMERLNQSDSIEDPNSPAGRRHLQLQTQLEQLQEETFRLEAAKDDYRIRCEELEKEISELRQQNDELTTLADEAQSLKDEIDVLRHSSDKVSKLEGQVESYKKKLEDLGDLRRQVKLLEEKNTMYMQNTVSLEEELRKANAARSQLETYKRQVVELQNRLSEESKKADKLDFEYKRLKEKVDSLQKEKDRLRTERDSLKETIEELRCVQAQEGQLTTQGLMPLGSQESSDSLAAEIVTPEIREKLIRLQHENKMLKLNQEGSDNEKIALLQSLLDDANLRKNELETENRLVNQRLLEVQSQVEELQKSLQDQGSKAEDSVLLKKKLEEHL
The assay can be described thus: pull-down; GST::LIC::6xHis (50 pmol) with 50 or 250 pmol adaptor and glutathione agarose, 1 h at 4°C, 150 μL of 50 mM HEPES, 100 mM NaCl, 5 mM DTT, pH 7.5, 0.1% Tween 20; Coomassie staining and immunoblot against Strep-tag II.

Assay [5] concerns the target T3, RILP(1–401)::Strep-tag II. Described as above.
Assay [6] deals with T5, BICD2(2–422)::Strep-tag II (human, UniProt Q8TD16 2-422).
T5 construct: human bicaudal D homolog 2 (BICD2), N-terminal region, residues 2-422; also called bicaudal D homolog 2; source: E. coli BL21, purified (Ni-NTA, TEV cleavage, Strep-Tactin; dialysis or SEC); not shown: 6xHis::MBP, N-terminal, cleaved; Strep-tag II (after linker GSGSGR), C-terminal, kept
T5 sequence (Q8TD16 2-422): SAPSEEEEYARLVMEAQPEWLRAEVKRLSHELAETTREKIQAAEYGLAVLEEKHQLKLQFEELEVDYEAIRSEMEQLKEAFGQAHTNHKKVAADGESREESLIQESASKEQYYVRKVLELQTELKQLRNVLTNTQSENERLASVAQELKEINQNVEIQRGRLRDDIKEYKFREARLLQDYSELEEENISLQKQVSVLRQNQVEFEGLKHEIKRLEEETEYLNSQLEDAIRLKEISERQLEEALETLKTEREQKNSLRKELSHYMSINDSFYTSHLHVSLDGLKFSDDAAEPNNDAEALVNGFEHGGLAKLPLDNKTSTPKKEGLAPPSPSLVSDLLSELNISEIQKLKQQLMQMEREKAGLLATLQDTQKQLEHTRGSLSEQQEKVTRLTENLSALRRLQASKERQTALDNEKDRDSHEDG
Described as above.

Assay [7] has as its target T6, SPDL1(2–359)::Strep-tag II (human, UniProt Q96EA4 2-359).
T6 construct: human Spindly (SPDL1), N-terminal region, residues 2-359; also called Spindly; source: E. coli BL21, purified (Ni-NTA, TEV cleavage, Strep-Tactin; dialysis or SEC); not shown: 6xHis::MBP, N-terminal, cleaved; Strep-tag II (after linker GSGSGR), C-terminal, kept
T6 sequence (looked up): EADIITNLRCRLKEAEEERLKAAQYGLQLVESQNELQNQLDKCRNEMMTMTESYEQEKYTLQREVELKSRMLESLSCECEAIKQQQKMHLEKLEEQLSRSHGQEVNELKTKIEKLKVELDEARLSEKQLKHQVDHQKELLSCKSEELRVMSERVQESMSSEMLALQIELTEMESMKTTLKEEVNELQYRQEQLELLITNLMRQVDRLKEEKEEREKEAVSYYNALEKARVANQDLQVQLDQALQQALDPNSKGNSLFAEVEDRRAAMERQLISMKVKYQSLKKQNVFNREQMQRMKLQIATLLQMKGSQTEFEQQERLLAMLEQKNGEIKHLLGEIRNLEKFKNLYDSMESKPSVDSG
The assay can be described thus: SPR; Biacore 3000; His-tagged LIC1 immobilised on NTA chip (200–300 RU), Strep-tagged adaptor as analyte; HBS-P (10 mM HEPES, 150 mM NaCl, 0.005% surfactant P20, pH 7.4).

Assay [8] concerns the target T5, BICD2(2–422)::Strep-tag II. Described as above.

B1: GST::LIC1(388–523)::6xHis (domain or fragment, human)
chain: WPTAAGRPVDASPRVPGGSPRTPNRSVSSNVASVSPIPAGSKKIDPNMKAGATSEGVLANFFNSLLSKKTGSPGGPGVSGGSPAGGAGGGSSGLPPSTKKSGQKPVLDVHAELDRITRKPVTVSPTTPTSPTEGEAS
notes: single N-terminal tryptophan added in the construct; also called LIC1-C; source: E. coli BL21, purified (glutathione agarose, Ni-NTA; dialysis or SEC); not shown: GST, N-terminal, kept; 6xHis (after linker GSGSG), C-terminal, kept
Consider B1, for which, in assay [1], the binding result was “binds”. In addition, the binding result in assay [2] is recorded as “binds”. Further, in assay [3], the affinity, expressed as Kd, was 1180 nM; the dissociation rate constant (koff) (in general, a measure of how fast the partners let go of each other) stood at 0.00101 s⁻¹; the association rate constant (kon) (commonly a measure of how fast the partners come together) came out at 872 M⁻¹ s⁻¹.

B2: GST::LIC1(440–455)::6xHis (peptide)
chain: WSEGVLANFFNSLLSKK
notes: single N-terminal tryptophan added in the construct; human dynein light intermediate chain 1 (DYNC1LI1), helix 1, residues 440-455; also called LIC1-C helix 1; GST::LIC1(440–455)::6His; source: E. coli BL21, purified (glutathione agarose, Ni-NTA; dialysis or SEC); not shown: GST, N-terminal, kept; 6xHis (after linker GSGSG), C-terminal, kept
As to B2, in assay [3], the dissociation constant Kd (usually the constant that tells how readily two partners part at equilibrium) turned out to be 1670 nM, the koff worked out at 0.000996 s⁻¹ and the kon came to 606 M⁻¹ s⁻¹.

B3: GST::LIC1(440–471)::6xHis (domain or fragment, human)
chain: WSEGVLANFFNSLLSKKTGSPGGPGVSGGSPAG
notes: single N-terminal tryptophan added in the construct; human dynein light intermediate chain 1 (DYNC1LI1), residues 440-471; source: E. coli BL21, purified (glutathione agarose, Ni-NTA; dialysis or SEC); not shown: GST, N-terminal, kept; 6xHis (after linker GSGSG), C-terminal, kept
B3: the binding result in assay [4], in assay [5] and in assay [6] was “binds” in each case.

B4: GST::LIC1(424–471)::6xHis (domain or fragment, human)
chain: WPAGSKKIDPNMKAGATSEGVLANFFNSLLSKKTGSPGGPGVSGGSPAG
notes: single N-terminal tryptophan added in the construct; human dynein light intermediate chain 1 (DYNC1LI1), residues 424-471; source: E. coli BL21, purified (glutathione agarose, Ni-NTA; dialysis or SEC); not shown: GST, N-terminal, kept; 6xHis (after linker GSGSG), C-terminal, kept
Turning to B4, the binding result in assay [4], in assay [5] and in assay [6] was “binds” in each case.

B5: GST::LIC1(388–471)::6xHis (domain or fragment, human)
chain: WPTAAGRPVDASPRVPGGSPRTPNRSVSSNVASVSPIPAGSKKIDPNMKAGATSEGVLANFFNSLLSKKTGSPGGPGVSGGSPAG
notes: single N-terminal tryptophan added in the construct; source: E. coli BL21, purified (glutathione agarose, Ni-NTA; dialysis or SEC); not shown: GST, N-terminal, kept; 6xHis (after linker GSGSG), C-terminal, kept
As to B5, the binding result in assay [1], in assay [4], in assay [5] and in assay [2] was “binds” throughout.

B6: LIC1(388–471)::6xHis (domain or fragment, human)
chain: B5 chain
notes: single N-terminal tryptophan added in the construct; source: E. coli BL21, purified (GSTrap, PreScission cleavage, second GSTrap, SEC Superdex 75); not shown: GST, N-terminal, cleaved; 6xHis (after linker GSGSG), C-terminal, kept
Consider B6, for which the dissociation constant (Kd) in assay [7] came to 5400 nM; in assay [8], 700 nM.

(Values after publication PMC6336354, “A transient helix in the disordered region of dynein light intermediate chain links the motor to structurally diverse adaptors for cargo transport” (PLoS Biology, 2019).)
